Kd data for 1 substance are collected here from PMC6753332.

In this test the target is neuropilin-1 (NRP1), wildtype, expressed on BW cells (human) (UniProt O14786). Put plainly: flow cytometry on cells; saturation: BW NRP1 cells with increasing concentrations of monomeric rh-C4Ad, detected with monoclonal C4d antibody and PE goat anti-mouse IgG; Langmuir isotherm for single-class 1:1 binding; apparent KD. In general terms: In flow cytometry, cells or beads pass a laser one at a time.

With “recombinant human C4Ad (rh-C4Ad) (domain or fragment)”, the Kd came to 710 nM.
